Target: PspR, DTG rhodopsin from Pseudomonas putida (Pseudomonas putida)
Experiment: crystal structure

PspR, DTG rhodopsin from Pseudomonas putida (natural protein)
stoichiometry N: 3

— PMC8927995
